From paper PMC8591511, “Flexible open conformation of the AP-3 complex explains its role in cargo recruitment at the Golgi” (The Journal of Biological Chemistry, 2021)

What was measured:
[1] = molecular target: T1, GFP-tagged AP-3 complex (Apl6 tagged C-terminally with mGFP) (S. cerevisiae, UniProt Q08951 1-932; P46682 1-809; P38153 1-483; P47064 1-194); assay: single-molecule TIRF microscopy on polymer-supported membranes; polymer-supported membranes (Golgi mixture with 1 mol% PI4P) with or without Arf1 (10 nM), Sec7ΔC (10 nM) and 400 μM GTPγS, or reconstituted Vam3; GFP-tagged AP-3 (2 nM) labelled with anti-GFP nanobody-Dy647; room temperature; monitored 45 min; details: both partners purified
T1 construct: Apl5, δ-subunit of the yeast AP-3 complex; Apl6, β3-subunit of the yeast AP-3 complex; Apm3, μ3-subunit of the yeast AP-3 complex; Aps3, σ-subunit of the yeast AP-3 complex; also called GFP-AP-3; source: yeast strain with Apl6 fused to GFP, purified; labelled via anti-GFP nanobody carrying DY647 or Alexa Fluor 568; not shown: mGFP, C-terminal, kept; copies: + + +

[2] = molecular target: T1, GFP-tagged AP-3 complex (Apl6 tagged …); assay: single-molecule tracking of cargo mobility (TIRF microscopy); labelled Vam3 in polymer-supported membranes tracked before and after the addition of AP-3; without Arf1 and Sec7; details: both partners purified

T1 sequence (Q08951 whole entry, chain 1 of 4, the tested form may be a part): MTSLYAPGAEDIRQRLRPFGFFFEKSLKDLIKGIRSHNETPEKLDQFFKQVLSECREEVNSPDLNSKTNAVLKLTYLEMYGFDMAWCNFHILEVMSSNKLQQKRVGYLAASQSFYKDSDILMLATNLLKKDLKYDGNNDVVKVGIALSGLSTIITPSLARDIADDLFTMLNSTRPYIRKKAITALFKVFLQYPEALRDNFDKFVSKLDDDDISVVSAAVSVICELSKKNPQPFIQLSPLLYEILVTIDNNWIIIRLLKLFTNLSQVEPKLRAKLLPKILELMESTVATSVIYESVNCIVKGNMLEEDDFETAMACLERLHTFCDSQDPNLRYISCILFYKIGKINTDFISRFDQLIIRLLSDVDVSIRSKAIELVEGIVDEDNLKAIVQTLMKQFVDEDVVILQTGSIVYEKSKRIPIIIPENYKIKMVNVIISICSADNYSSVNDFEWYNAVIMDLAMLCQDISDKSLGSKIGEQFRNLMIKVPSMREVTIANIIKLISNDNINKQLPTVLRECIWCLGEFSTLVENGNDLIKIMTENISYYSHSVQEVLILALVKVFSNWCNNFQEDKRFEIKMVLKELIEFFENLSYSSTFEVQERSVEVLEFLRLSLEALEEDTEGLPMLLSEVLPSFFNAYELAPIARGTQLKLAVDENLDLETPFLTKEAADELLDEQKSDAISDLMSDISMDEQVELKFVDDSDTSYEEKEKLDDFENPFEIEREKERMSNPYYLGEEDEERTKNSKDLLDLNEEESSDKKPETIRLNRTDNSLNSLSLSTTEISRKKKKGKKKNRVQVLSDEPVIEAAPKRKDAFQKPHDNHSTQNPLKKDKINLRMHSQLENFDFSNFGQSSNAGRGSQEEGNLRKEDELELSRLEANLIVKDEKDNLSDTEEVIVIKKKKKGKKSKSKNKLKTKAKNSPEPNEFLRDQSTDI
T1 sequence (P46682 whole entry, chain 2 of 4, the tested form may be a part): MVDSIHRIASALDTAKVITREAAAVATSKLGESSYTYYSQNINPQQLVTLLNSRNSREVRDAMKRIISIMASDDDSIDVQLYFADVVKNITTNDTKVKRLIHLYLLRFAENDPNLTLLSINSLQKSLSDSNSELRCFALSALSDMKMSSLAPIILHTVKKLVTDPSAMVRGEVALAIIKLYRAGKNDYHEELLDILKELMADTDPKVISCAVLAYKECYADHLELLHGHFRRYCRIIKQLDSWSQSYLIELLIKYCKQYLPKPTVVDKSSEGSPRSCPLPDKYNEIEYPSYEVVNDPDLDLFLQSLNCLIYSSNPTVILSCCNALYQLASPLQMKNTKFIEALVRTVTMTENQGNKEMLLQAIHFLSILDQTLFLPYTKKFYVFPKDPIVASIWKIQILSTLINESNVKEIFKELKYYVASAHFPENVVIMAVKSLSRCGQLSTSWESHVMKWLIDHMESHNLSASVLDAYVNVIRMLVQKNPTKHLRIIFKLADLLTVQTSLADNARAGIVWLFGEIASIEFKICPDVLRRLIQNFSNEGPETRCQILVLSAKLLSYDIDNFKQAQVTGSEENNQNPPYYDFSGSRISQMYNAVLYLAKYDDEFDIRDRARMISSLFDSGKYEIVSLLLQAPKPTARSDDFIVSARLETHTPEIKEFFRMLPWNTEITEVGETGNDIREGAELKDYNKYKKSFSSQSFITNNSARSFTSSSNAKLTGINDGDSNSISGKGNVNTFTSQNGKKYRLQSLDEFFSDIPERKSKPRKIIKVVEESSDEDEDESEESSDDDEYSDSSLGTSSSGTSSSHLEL
T1 sequence (P38153 whole entry, chain 3 of 4, the tested form may be a part): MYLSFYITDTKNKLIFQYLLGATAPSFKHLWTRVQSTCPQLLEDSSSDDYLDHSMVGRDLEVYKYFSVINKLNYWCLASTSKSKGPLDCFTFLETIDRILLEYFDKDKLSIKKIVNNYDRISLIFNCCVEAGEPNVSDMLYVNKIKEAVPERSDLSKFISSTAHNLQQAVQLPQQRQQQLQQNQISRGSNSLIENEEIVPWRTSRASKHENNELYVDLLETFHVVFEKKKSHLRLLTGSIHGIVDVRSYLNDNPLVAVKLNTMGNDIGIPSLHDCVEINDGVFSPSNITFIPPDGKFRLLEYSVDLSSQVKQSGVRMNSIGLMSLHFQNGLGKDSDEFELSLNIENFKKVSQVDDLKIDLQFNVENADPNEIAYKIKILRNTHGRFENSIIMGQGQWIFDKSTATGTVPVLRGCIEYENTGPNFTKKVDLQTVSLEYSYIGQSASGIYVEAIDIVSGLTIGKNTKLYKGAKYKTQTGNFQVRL
T1 sequence (P47064 whole entry, chain 4 of 4, the tested form may be a part): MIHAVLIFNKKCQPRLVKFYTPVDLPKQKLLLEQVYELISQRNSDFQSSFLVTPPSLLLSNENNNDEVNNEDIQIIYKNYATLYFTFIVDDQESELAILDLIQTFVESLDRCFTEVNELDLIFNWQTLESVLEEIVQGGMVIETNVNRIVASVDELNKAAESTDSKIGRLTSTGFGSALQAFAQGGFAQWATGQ

B1: Vam3 (yeast vacuolar SNARE, AP-3 cargo with dileucine motif) (natural protein, UniProt Q12241 1-283, looked up)
chain: MSFFDIEAQSSKGNSQQEPQFSTNQKTKELSNLIETFAEQSRVLEKECTKIGSKRDSKELRYKIETELIPNCTSVRDKIESNILIHQNGKLSADFKNLKTKYQSLQQSYNQRKSLFPLKTPISPGTSKERKDIHPRTEAVRQDPESSYISIKVNEQSPLLHNEGQHQLQLQEEQEQQQQGLSQEELDFQTIIHQERSQQIGRIHTAVQEVNAIFHQLGSLVKEQGEQVTTIDENISHLHDNMQNANKQLTRADQHQRDRNKCGKVTLIIIIVVCMVVLLAVLS
notes: Vam3, yeast SNARE; transmembrane domain aa 263–283; source: reconstituted into proteoliposomes or polymer-supported membranes
B1: binds [1].

B2: Vam3 labelled with Atto 647N (natural protein, yeast, UniProt Q12241 1-283, looked up)
chain: B1 chain
modifications: Atto 647N (Maleimide)
notes: Vam3, yeast SNARE; also called prelabeled transmembrane cargo; source: reconstituted into polymer-supported membranes
B2: binds [2].
